The Human Domainome abundance scans (Beltran et al. 2025)
± gives the uncertainty stated by the source.

B1: Formin-binding protein 4, residues 200 to 261; numbered along this chain, Q8N3X1 (parent)
chain: SGWQYDTQCSLAGVGIEMGDWQEVWDENTGCYYYWNTQTNEVTWELPQYLATQVQGLQHYQP

Variants of: B1
Assay: abundance fitness (aPCA) (normalised: wild type 0, dead -1); higher = more abundant; growth selection in yeast, the domain comes from the species named
Details: Homo sapiens

Compared with SGWQYDTVCSLAGVGIEMGDWQEVWDENTGCYYYWNTQTNEVTWELPQYLATQVQGLQHYQP [Q8V], SGWQYDTHCSLAGVGIEMGDWQEVWDENTGCYYYWNTQTNEVTWELPQYLATQVQGLQHYQP [Q8H] is higher in abundance fitness: -0.191 ± 0.062 for the first, 0.041 ± 0.12 for the second.

Compared with SGWQYDTDCSLAGVGIEMGDWQEVWDENTGCYYYWNTQTNEVTWELPQYLATQVQGLQHYQP [Q8D], SGWQYDTNCSLAGVGIEMGDWQEVWDENTGCYYYWNTQTNEVTWELPQYLATQVQGLQHYQP [Q8N] is higher in abundance fitness: -0.515 ± 0.16 for the first, -0.02 ± 0.13 for the second.

Going from SGWQYDTMCSLAGVGIEMGDWQEVWDENTGCYYYWNTQTNEVTWELPQYLATQVQGLQHYQP [Q8M] to SGWQYDTWCSLAGVGIEMGDWQEVWDENTGCYYYWNTQTNEVTWELPQYLATQVQGLQHYQP [Q8W], the abundance fitness falls from -0.097 ± 0.072 to -0.421 ± 0.082.

Going from SGWQYDTFCSLAGVGIEMGDWQEVWDENTGCYYYWNTQTNEVTWELPQYLATQVQGLQHYQP [Q8F] to SGWQYDTPCSLAGVGIEMGDWQEVWDENTGCYYYWNTQTNEVTWELPQYLATQVQGLQHYQP [Q8P], the abundance fitness falls from -0.233 ± 0.11 to -0.568 ± 0.11.

Compared with SGWQYDTICSLAGVGIEMGDWQEVWDENTGCYYYWNTQTNEVTWELPQYLATQVQGLQHYQP [Q8I], SGWQYDTGCSLAGVGIEMGDWQEVWDENTGCYYYWNTQTNEVTWELPQYLATQVQGLQHYQP [Q8G] is higher in abundance fitness: -0.445 ± 0.16 for the first, 0.105 ± 0.056 for the second.

SGWQYDTYCSLAGVGIEMGDWQEVWDENTGCYYYWNTQTNEVTWELPQYLATQVQGLQHYQP [Q8Y] and SGWGYDTQCSLAGVGIEMGDWQEVWDENTGCYYYWNTQTNEVTWELPQYLATQVQGLQHYQP [Q4G] are within error of each other in abundance fitness: -0.267 ± 0.13 for the first, -0.207 ± 0.073 for the second.

Compared with SGWSYDTQCSLAGVGIEMGDWQEVWDENTGCYYYWNTQTNEVTWELPQYLATQVQGLQHYQP [Q4S], SGWMYDTQCSLAGVGIEMGDWQEVWDENTGCYYYWNTQTNEVTWELPQYLATQVQGLQHYQP [Q4M] is higher in abundance fitness: -0.023 ± 0.055 for the first, 0.165 ± 0.089 for the second.

SGWFYDTQCSLAGVGIEMGDWQEVWDENTGCYYYWNTQTNEVTWELPQYLATQVQGLQHYQP [Q4F] and SGWTYDTQCSLAGVGIEMGDWQEVWDENTGCYYYWNTQTNEVTWELPQYLATQVQGLQHYQP [Q4T] are within error of each other in abundance fitness: 0.146 ± 0.083 for the first, 0.288 ± 0.07 for the second.

Compared with SGWNYDTQCSLAGVGIEMGDWQEVWDENTGCYYYWNTQTNEVTWELPQYLATQVQGLQHYQP [Q4N], SGWRYDTQCSLAGVGIEMGDWQEVWDENTGCYYYWNTQTNEVTWELPQYLATQVQGLQHYQP [Q4R] is lower in abundance fitness: 0.318 ± 0.088 for the first, 0.106 ± 0.053 for the second.

Going from SGWVYDTQCSLAGVGIEMGDWQEVWDENTGCYYYWNTQTNEVTWELPQYLATQVQGLQHYQP [Q4V] to SGWYYDTQCSLAGVGIEMGDWQEVWDENTGCYYYWNTQTNEVTWELPQYLATQVQGLQHYQP [Q4Y], the abundance fitness falls from 0.147 ± 0.061 to -0.176 ± 0.097.

SGWKYDTQCSLAGVGIEMGDWQEVWDENTGCYYYWNTQTNEVTWELPQYLATQVQGLQHYQP [Q4K] and SGWIYDTQCSLAGVGIEMGDWQEVWDENTGCYYYWNTQTNEVTWELPQYLATQVQGLQHYQP [Q4I] are within error of each other in abundance fitness: 0.358 ± 0.088 for the first, 0.232 ± 0.085 for the second.

Compared with SGWPYDTQCSLAGVGIEMGDWQEVWDENTGCYYYWNTQTNEVTWELPQYLATQVQGLQHYQP [Q4P], SGWHYDTQCSLAGVGIEMGDWQEVWDENTGCYYYWNTQTNEVTWELPQYLATQVQGLQHYQP [Q4H] is higher in abundance fitness: -0.635 ± 0.12 for the first, 0.126 ± 0.088 for the second.

Compared with SGWWYDTQCSLAGVGIEMGDWQEVWDENTGCYYYWNTQTNEVTWELPQYLATQVQGLQHYQP [Q4W], SGWLYDTQCSLAGVGIEMGDWQEVWDENTGCYYYWNTQTNEVTWELPQYLATQVQGLQHYQP [Q4L] is lower in abundance fitness: -0.241 ± 0.078 for the first, -0.385 ± 0.065 for the second.

SGWQWDTQCSLAGVGIEMGDWQEVWDENTGCYYYWNTQTNEVTWELPQYLATQVQGLQHYQP [Y5W] and SGWQHDTQCSLAGVGIEMGDWQEVWDENTGCYYYWNTQTNEVTWELPQYLATQVQGLQHYQP [Y5H] are within error of each other in abundance fitness: -0.207 ± 0.09 for the first, -0.052 ± 0.13 for the second.

First: SGWQPDTQCSLAGVGIEMGDWQEVWDENTGCYYYWNTQTNEVTWELPQYLATQVQGLQHYQP [Y5P]
Second: SGWQRDTQCSLAGVGIEMGDWQEVWDENTGCYYYWNTQTNEVTWELPQYLATQVQGLQHYQP [Y5R]
The abundance fitness of the first is lower: -0.506 ± 0.11 for the first, -0.181 ± 0.061 for the second.

Compared with SGWQMDTQCSLAGVGIEMGDWQEVWDENTGCYYYWNTQTNEVTWELPQYLATQVQGLQHYQP [Y5M], SGWQQDTQCSLAGVGIEMGDWQEVWDENTGCYYYWNTQTNEVTWELPQYLATQVQGLQHYQP [Y5Q] is lower in abundance fitness: 0.06 ± 0.064 for the first, -0.357 ± 0.092 for the second.

SGWQTDTQCSLAGVGIEMGDWQEVWDENTGCYYYWNTQTNEVTWELPQYLATQVQGLQHYQP [Y5T] and SGWQIDTQCSLAGVGIEMGDWQEVWDENTGCYYYWNTQTNEVTWELPQYLATQVQGLQHYQP [Y5I] are within error of each other in abundance fitness: -0.271 ± 0.085 for the first, -0.436 ± 0.12 for the second.

SGWQVDTQCSLAGVGIEMGDWQEVWDENTGCYYYWNTQTNEVTWELPQYLATQVQGLQHYQP [Y5V] and SGWQLDTQCSLAGVGIEMGDWQEVWDENTGCYYYWNTQTNEVTWELPQYLATQVQGLQHYQP [Y5L] are within error of each other in abundance fitness: -0.534 ± 0.09 for the first, -0.425 ± 0.058 for the second.

Compared with SGWQFDTQCSLAGVGIEMGDWQEVWDENTGCYYYWNTQTNEVTWELPQYLATQVQGLQHYQP [Y5F], SGWQADTQCSLAGVGIEMGDWQEVWDENTGCYYYWNTQTNEVTWELPQYLATQVQGLQHYQP [Y5A] is lower in abundance fitness: -0.115 ± 0.095 for the first, -0.416 ± 0.089 for the second.

SGWQSDTQCSLAGVGIEMGDWQEVWDENTGCYYYWNTQTNEVTWELPQYLATQVQGLQHYQP [Y5S] and SGWQGDTQCSLAGVGIEMGDWQEVWDENTGCYYYWNTQTNEVTWELPQYLATQVQGLQHYQP [Y5G] are within error of each other in abundance fitness: -0.323 ± 0.067 for the first, -0.36 ± 0.093 for the second.

SGWQCDTQCSLAGVGIEMGDWQEVWDENTGCYYYWNTQTNEVTWELPQYLATQVQGLQHYQP [Y5C] and SGWQDDTQCSLAGVGIEMGDWQEVWDENTGCYYYWNTQTNEVTWELPQYLATQVQGLQHYQP [Y5D] are within error of each other in abundance fitness: -0.592 ± 0.15 for the first, -0.525 ± 0.17 for the second.

For SGWQEDTQCSLAGVGIEMGDWQEVWDENTGCYYYWNTQTNEVTWELPQYLATQVQGLQHYQP [Y5E], the abundance fitness was -0.218 ± 0.086.
